Experimental data from US6759384 (AVENTIS PHARMACEUTICALS, dated 2004).
Where two headings read alike, the source gives them in different places. Starred links: 1 amine or outer side, 2 acyl side, 3 side chain; linkers in the order of their positions; H or OH if unused. Non-standard residues stand in square brackets, D forms with d. No end group written: not given here. *: point of attachment. (iBu)Phe(4-NH2) = N-isobutyl-4-amino-L-phenylalanine, CC(C)CN([C@@H](Cc1ccc(N[*:3])cc1)C(=O)[*:2])[*:1]; (iBu)Phe(4-CN) = N-isobutyl-4-cyano-L-phenylalanine, CC(C)CN([C@@H](Cc1ccc(C#N)cc1)C(=O)[*:2])[*:1]; (Chx-CH2)Y = N-(cyclohexylmethyl)-Tyr, O=C([C@H](Cc1ccc(O[*:3])cc1)N(CC1CCCCC1)[*:1])[*:2]; (iBu)Y = N-alpha-isobutyl-tyrosine, CC(C)CN([C@@H](Cc1ccc(O[*:3])cc1)C(=O)[*:2])[*:1]; 4‑isoquinolinoyl = 4-isoquinolinoyl N-terminal acyl group, O=C(c1cncc2ccccc12)*; Phe(4-CONH2) = NC(=O)c1ccc(C[C@H](N)C(=O)O)cc1; Phe(4-NH2) = Nc1ccc(C[C@H](N)C(=O)O)cc1; NMeL = CN[C@@H](CC(C)C)C(=O)O; Chg = N[C@H](C(=O)O)C1CCCCC1; Nicotinoyl = O=C(c1cccnc1)*; Tfa = O=C(C(F)(F)F)*; Bz = O=C(c1ccccc1)*

B1: Ac-(2-Me-nPentyl)Y-I-R-L-P-NH2 (peptide)
peptide: XIRLP
modifications: N-term Ac; N-(2-Me-nPentyl) on Y1; C-term NH2
notes: also called Ac-(CH3CH2CH2CH(CH3)CH2)-Y-I-R-L-P-NH2
B2: (4-isoquinolinoyl)-Phe(pNH2)-Chg-Arg-Leu-Pro-NH2 (peptide)
peptide: {4‑isoquinolinoyl}-[Phe(4-NH2)][Chg]RLP-NH2
SMILES: CC(C)C[C@H](NC(=O)[C@H](CCCNC(=N)N)NC(=O)[C@@H](NC(=O)[C@H](Cc1ccc(N)cc1)NC(=O)c1cncc2ccccc12)C1CCCCC1)C(=O)N1CCC[C@H]1C(N)=O
B3: (3-pyridoyl)-Phe(pNH2)-Chg-Arg-Leu-Pro-NH2 (peptide)
peptide: Nicotinoyl-[Phe(4-NH2)][Chg]RLP-NH2
SMILES: CC(C)C[C@H](NC(=O)[C@H](CCCNC(=N)N)NC(=O)[C@@H](NC(=O)[C@H](Cc1ccc(N)cc1)NC(=O)c1cccnc1)C1CCCCC1)C(=O)N1CCC[C@H]1C(N)=O
B4: Ac-F(pCONH2)-Chg-R-L-P-NH2 (peptide)
peptide: Ac-[Phe(4-CONH2)][Chg]RLP-NH2
SMILES: CC(=O)N[C@@H](Cc1ccc(C(N)=O)cc1)C(=O)N[C@H](C(=O)N[C@@H](CCCNC(=N)N)C(=O)N[C@@H](CC(C)C)C(=O)N1CCC[C@H]1C(N)=O)C1CCCCC1
notes: also called Ac-Phe(pCONH2)-Chg-R-L-P-NH2; Ac-Phe(p-CONH2)-Chg-Arg-Leu-Pro-NH2
B5: Ac-W-Chg-R-L-P-NH2 (peptide)
peptide: Ac-W[Chg]RLP-NH2
SMILES: CC(=O)N[C@@H](Cc1c[nH]c2ccccc12)C(=O)N[C@H](C(=O)N[C@@H](CCCNC(=N)N)C(=O)N[C@@H](CC(C)C)C(=O)N1CCC[C@H]1C(N)=O)C1CCCCC1
notes: also called Ac-Trp-Chg-Arg-Leu-Pro-NH2
B6: Tfa-(iBu)Y-Chg-R-L-P-NH2 (peptide)
peptide: Tfa-[(iBu)Y][Chg]RLP-NH2
notes: also called Tfa-(iBu)Tyr-Chg-Arg-Leu-Pro-NH2
B7: Ac-Y-Chg-R-L-P-NH2 (peptide)
peptide: Ac-Y[Chg]RLP-NH2
SMILES: CC(=O)N[C@@H](Cc1ccc(O)cc1)C(=O)N[C@H](C(=O)N[C@@H](CCCNC(=N)N)C(=O)N[C@@H](CC(C)C)C(=O)N1CCC[C@H]1C(N)=O)C1CCCCC1
notes: also called Ac-Tyr-Chg-Arg-Leu-Pro-NH2
B8: Ac-(iBu)F(pNH2)-Chg-R-L-P-NH2 (peptide)
peptide: Ac-[(iBu)Phe(4-NH2)][Chg]RLP-NH2
notes: also called Ac-(iBu)-Phe(pNH2)-Chg-Arg-Leu-Pro-NH2
B9: (Benzoyl)-Phe(pNH2)-Chg-Arg-Leu-Pro-NH2 (peptide)
peptide: Bz-[Phe(4-NH2)][Chg]RLP-NH2
SMILES: CC(C)C[C@H](NC(=O)[C@H](CCCNC(=N)N)NC(=O)[C@@H](NC(=O)[C@H](Cc1ccc(N)cc1)NC(=O)c1ccccc1)C1CCCCC1)C(=O)N1CCC[C@H]1C(N)=O
notes: also called Bz-F(pNH2)-Chg-R-L-P-NH2
B10: Ac-Phe(pNH2)-Chg-Arg-(Me)Leu-Pro-NH2 (peptide)
peptide: Ac-[Phe(4-NH2)][Chg]R[NMeL]P-NH2
SMILES: CC(=O)N[C@@H](Cc1ccc(N)cc1)C(=O)N[C@H](C(=O)N[C@@H](CCCNC(=N)N)C(=O)N(C)[C@@H](CC(C)C)C(=O)N1CCC[C@H]1C(N)=O)C1CCCCC1
B11: Ac-(Chx-CH2)Y-I-R-L-P-NH2 (peptide)
peptide: XIRLP
modifications: N-term Ac; N-(Chx-CH2) on Y1; C-term NH2
notes: also called Ac-(Chx-CH2)Tyr-Ile-Arg-Leu-Pro-NH2; Ac-(Chx-CH2)-Tyr-Ile-Arg-Leu-Pro-NH2

Legend:
[1] = target: T1, human factor Xa (Enzyme Research Laboratories, Inc.) (human, UniProt P00742 41-179; P00742 235-488, limits assumed); assay: chromogenic FXa inhibition
Method: TBS-P buffer (50 mM Tris-Cl, pH 7.8, 200 mM NaCl, 0.05% (w/v) PEG-8000, 0.02% (w/v) NaN_3) was used for this assay. The IC$50$ was determined by combining in appropriate wells of a Costar half-area microtiter plate 25 μl human factor Xa (Enzyme Research Laboratories, Inc.; South Bend Ind.) in TBS-P; 40 μl 10% (v/v) DMSO in TBS-P (uninhibited control) or various concentrations of a peptide to be tested diluted in 10% (v/v) DMSO in TBS-P; and substrate S-2765 (Nα-benzyloxycarbonyl-D-Arg-Gly-L-Arg-p-nitroanilide; Kabi Pharmacia, Inc.; Franklin Ohio) in TBS-P.
The assays were performed by pre-incubating the peptide inhibitor plus enzyme for 10 min, then the assay was initiated by adding substrate to obtain a final volume of 100 μl. The initial velocity of chromogenic substrate hydrolysis was measured by the change in absorbance at 405 nm using a Bio-tek Instruments kinetic plate reader (Ceres UV900HDi) at 25° C. during the linear portion of the time course (usually 1–5 min after addition of substrate). The concentration of inhibitor that caused a 50% decrease in the rate of substrate hydrolysis was predicted by linear regression after plotting the relative rates of hydrolysis (compared to the uninhibited control) versus the log of the peptide concentration. The enzyme concentration was 0.5 nM and substrate concentration was 140 μM.

[2] = target: T1, human factor Xa (Enzyme Research …); assay: chromogenic FXa inhibition; remark: listed apart in the source
Procedure, shortened: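 Human FXa (0.5 nM) preincubated 10 min with inhibitor in TBS-P (pH 7.8, 200 mM NaCl, PEG-8000), then S-2765 added (140 μM). Initial hydrolysis rate read at 405 nm, 25° C.; IC50 by linear regression of relative rate vs log concentration.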

[3] = target: T1, human factor Xa (Enzyme Research …); assay: cell-based or functional assay

T1 sequence (P00742 41-179 limits assumed, chain 1 of 2): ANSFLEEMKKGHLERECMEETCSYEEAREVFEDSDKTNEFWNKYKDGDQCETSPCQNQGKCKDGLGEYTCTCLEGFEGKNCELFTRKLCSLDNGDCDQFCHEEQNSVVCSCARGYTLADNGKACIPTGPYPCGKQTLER
T1 sequence (P00742 235-488 limits assumed, chain 2 of 2): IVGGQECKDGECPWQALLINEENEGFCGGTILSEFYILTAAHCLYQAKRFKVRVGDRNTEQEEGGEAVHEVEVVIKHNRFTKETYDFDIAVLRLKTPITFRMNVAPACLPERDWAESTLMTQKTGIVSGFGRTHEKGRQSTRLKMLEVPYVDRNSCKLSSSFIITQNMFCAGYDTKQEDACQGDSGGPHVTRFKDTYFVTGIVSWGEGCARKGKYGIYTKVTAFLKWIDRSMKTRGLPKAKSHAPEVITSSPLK

Binder | Ki [1] [µM] | Ki [2] [µM] | EC50 (concentration giving 50% inhibition of coagulation), in vitro dilute prothrombin time assay, pooled human plasma [3] [nM]
B1 | < 100 | < 100 | –
B2 | < 100 | – | –
B3 | < 100 | – | –
B4 | < 100 | < 100 | –
[dY][Chg]RLP-NH2 (also called D-Tyr-Chg-Arg-Leu-Pro-NH2) [y-Chg-R-L-P-NH2] | < 100 | < 100 | –
B5 | < 100 | < 100 | –
Ac-[(Chx-CH2)Y][Chg]RLP-NH2 [Ac-(Chx-CH2)Tyr-Chg-Arg-Leu-Pro-NH2] | < 100 | – | –
B6 | – | < 100 | 300
B7 | < 100 | < 100 | 225
Tfa-Y[Chg]RLP-NH2 [Tfa-Y-Chg-R-L-P-NH2] | < 100 | < 100 | –
B8 | < 100 | < 100 | –
B9 | < 100 | – | –
B10 | < 100 | – | –
XIRLP (N-term Ac; N-(2-Me-nBu) on Y1; C-term NH2) [Ac-(2-Me-nBu)Y-I-R-L-P-NH2] | < 100 | < 100 | –
XIRLP (N-term Ac; N-(Et-CH═C(CH3)-CH2) on Y1; C-term NH2) [Ac-(Et-CH═C(CH3)-CH2)Y-I-R-L-P-NH2] | – | < 100 | –
B11 | < 100 | < 100 | –
Ac-[(iBu)Phe(4-CN)][Chg]RLP-NH2 [Ac-(iBu)Phe(pCN)-Chg-Arg-Leu-Pro-NH2] | < 100 | – | –
